In US7670820B2, “Chitinase and uses thereof” (Academia Sinica, priority 2007, dated 2010):
Several values for one entry are separate records, joined by “and”; a condition that tells them apart may be missing. Equal entries are not always repeated. Where two headings read alike, the source gives them in different places.

Assays:
CpCHI = type: biochemical, Carica papaya
Procedure: (§1) Chitinase activity was generally measured using glycol chitin as a substrate. All enzymes other than CpCHI, were purchased from Promega (Madison, Wis.). Chemicals were purchased from Merck (Darmstadt, Germany). An enzyme solution (10 μL) was added to 100 μL of 1% (w/v) glycolchitin dissolved in 90 μL of a sodium acetate buffer (100 mM, pH 5.0), and was incubated at 30° C. for 3 hours. The reducing end group produced was measured calorimetrically at 420 nm with 200 μL of a potassium ferricyanide (K3Fe(CN)6) reagent according to the method descried in Boller et al., 1983, Planta. 157, 22-31. Reduced sugar levels were determined relative to N-acetyl-β-D-glucosamine standards of 0-150 μg mL^−1. One unit of chitinase activity is defined as the amount of enzyme producing 1 μmol reducing sugar per minute at 30° C. Substrate and enzyme blanks were also prepared in which the enzyme or substrate was incubated with a buffer. All measured values of absorbency were normalized against appropriate blank absorbencies. In this example, collodial chitin and chitosan were also used as substrate for subtract specificity analysis.
To analyze the effect of metals and other factors on chitinase activity, the enzyme was preincubated with a 10 mM of different metals and inhibitors. After 30 minutes, the remaining chitinase activity was measured in the manner described above.

[1] = Chitinase substrate specificity, collodial chitin as substrate; type: biochemical; settings: relative to glycol chitin
Procedure: as §1

[2] = Chitinase activity with glycol chitin as substrate (colorimetric reducing-sugar assay); type: biochemical
Procedure: as §1
The optimal pH of the chitiolytic activity of CpCHI was determined by incubating the purified recombinant enzyme (5 μg) at different pH (3-10) at 30° C. for 3 hours using glycol chitin as the substrate. An acetate buffer (100 mM) was used for pH 3-5, a phosphate buffer (100 mM) for pH 6˜7, a Tris-HCl buffer (100 mM) for pH 8, and a glycine-NaOH buffer for pH 9 and 10. The optimal temperature was determined by incubating the purified chitinase (5 μg) at different temperatures (10˜90° C.) at pH 6.0 for 3 hours using glycol chitin as the substrate. The highest activity was calculated as relative activity (RA) 100%.

Alternaria brassicicola = experiment: Inhibition of spore germination; type: cell-based; settings: 24° C. for 24 hours
Procedure: Assays were also carried out to examine effects of CpCHI on Alternaria brassicicola, a fungus isolated from cabbages. The fungus was cultured in potato dextrose agar (DIFCO) for 2 weeks. After sporulation, the spores of the fungus were suspended in water to a concentration of 10^4 spores mL^−1. A fungal spore stock (approximately 500 spores) was cultured at 24° C. for 24 hours in the following solutions: (A) H2O, (B) TE buffer (10 mM Tris-HCl pH 7.5, 1 mM EDTA), (C) 5 μM CpCHI in TE buffer, and (D) 10 μM CpCHI in TE buffer. The inhibition of spore germination was examined under a light microscope at 200× amplification (Li et al., 2003, Plant Cell Physiol. 44, 1162-1167). The percentage of germination was calculated from 10 different observations. All experiments were conducted in triplicates.

E. coli ED2566 = experiment: Antibacterial activity, growth suppression (density at 600 nm); type: cell-based; settings: E. coli ED2566, LB medium
Procedure: (§2) Experiments were conducted to examine recombinant CpCHI's ability to suppress the growth of E. coli ED2566 or E. coli AD494. Briefly, the E. coli strain was grown at 37° C. in an LB medium with shaking at 225 rpm overnight. Then, the overnight culture was 100× diluted in a fresh LB medium containing 1 μM, 1.5 μM, 2 μM, 2.5 μM, or 3 μM CpCHI. A TE buffer (10 mM Tris-HCl pH7.5, 1 mM EDTA) was used as a control. Changes in density at 600 nm were monitored. The assays were conducts in triplicates and the average were recorded to examine the inhibition of bacterial growth.

E. coli AD494 = experiment: as above; type: cell-based; settings: E. coli AD494, LB medium
Procedure: as §2

Sclerotium rolfsii [3] = experiment: Antifungal activity, growth / hypha extension inhibition; type: cell-based
Procedure: (§3) The antifungal activity of recombinant chitinase protein was assessed by the hypha extension inhibition assay. Sclerotium rolfsii and Phytophthora sp. were provided from Hualien District Agricultural Research and Extension Station. Rhizoctonia solani and Alternaria brassicicola were provided by Dr. Jenn-Wen Hung of the Department of Plant Pathology of National Chung-Hsing University. A disc of each strain of fungus was removed from an actively growing fungal culture, and placed in the center of a fresh potato dextrose agar plate. After incubation at room temperature for 3 to 4 days, the recombinant chitinase or a control buffer (10 mM Tris-HCl pH7.5, 1 mM EDTA) were separately applied into a pool, which was 1 cm from the perimeter. The inhibition of the hypha extension was detected as a crescent-shaped zone of inhibition around the peripheral disc as the fungus grew out from the central disc.
(§4) The effects of recombinant CpCHI on the growth of Phytophthora sp., Sclerotium rolsii, and Rhizoctonia solani were examined using standard methods. Disease resistance assays were carried out using detached leaves of cabbage, bell pepper, and tomato that were inoculated with each of the pathogens. Cabbage (Brassica oleracea), bell pepper (Capsicam annuum), and tomato (Solanum lycopersicum) were obtained from Known-You Seed CO., LTD. An agar plug containing the pathogen was placed on the center of leaves. At day 1 day after inoculation, the detached leaves began to show lesions surrounded by yellow halos. Then, different solutions, including H2O, a TE buffer (10 mM Tris-HCl pH 7.5, 1 mM EDTA), or 5, 10, 15 μM CpCHI in the TE buffer was sprayed onto the leaves. At day 4 after inoculation, the pathogenesis inhibition by 5, 10, or 15 μM CpCHI was about 37%, 83%, and 98%, respectively (Table 3). […] Also, recombinant CpCHI inhibited the growth of these three fungi with as little as 15 μM, and the inhibited activity lasted for 7 days.

Phytophthora sp. = experiment: as above; type: cell-based
Procedure: as §3, §4

Rhizoctonia solani = experiment: as above; type: cell-based
Procedure: as §3, §4

[4] = type: physicochemical
Procedure: The pH stability of recombinant CpCHI was determined. Briefly, purified recombinant CpCHI was incubated in buffers with pH from 3.0 to 10.0 at 30° C. for 3 hours. The residual activity was then determined at a standard condition (30° C. for 3 hours at pH 6.0). The results were averaged from three independent experiments.
The stability of recombinant CpCHI during long-term storage was examined. […] The enzyme retained more than 60% of its activity for 3 weeks at 30° C. and more than 50% activity for 3 weeks at 37° C. The results were also averaged from three independent experiments.

[5] = HPLC analysis of chitin hydrolysis by CpCHI; type: biochemical
Procedure: Chitin hydrolysis was carried out in a phosphate buffer (100 mM, pH 6) at 30° C. with shaking. The concentrations of chitinase and glycol chitin suspension were 750 ng μL^−1 and 100 μg mL^−1, respectively. The reactions were quenched with 10% (v/v) acetic acid. […] The column was connected to an Agilent Technologies 1100 series HPLC system under the control of a Thermo Finnigan LCQ DECA electrospray mass spectrometer. The mass-to-charge ratios (m/z) of the expected oligosaccharides were selected as follows: Glc-NAc (221.9), (GlcNAc)2 (425.5), (GlcNAc)3 (627.6), (GlcNAc)4 (830.8), (GlcNAc)5 (1034.0), (GlcNAc)6 (1237.2), and (GlcNAc)7 (1440.0).

Sclerotium rolfsii [6] = experiment: Disease resistance assay on detached leaves; type: in vivo; settings: for pathogenesis inhibition: day 4 after inoculation
Procedure: as §4

[7] = Chitinase substrate specificity, chitosan as substrate; type: biochemical; settings: relative to glycol chitin
Procedure: as §1

[8] = enzyme preincubated 30 minutes with 10 mM reagent

Molecule: [Cl][Hg][Cl] [HgCl2]
- reduction / inhibition of CpCHI activity (CpCHI; 10 mM): completely
- Relative activity (%) of CpCHI (CpCHI; [8]): 0%

Molecule: [Cl][Mn][Cl] [MnCl2]
- reduction / inhibition of CpCHI activity (CpCHI; 10 mM): 64.7%
- Relative activity (%) of CpCHI (CpCHI; [8]): 35.33 ± 3.06%

Molecule: O=S(=O)([O-])[O-].[Cu+2] [CuSO4]
- reduction / inhibition of CpCHI activity (CpCHI; 10 mM): 60%
- Relative activity (%) of CpCHI (CpCHI; [8]): 40.00 ± 7.2%

Molecule: O=[N+]([O-])[O-].[Ag+] [AgNO3]
- reduction / inhibition of CpCHI activity (CpCHI; 10 mM): 16.33%
- Relative activity (%) of CpCHI (CpCHI; [8]): 83.67 ± 2.52%

Molecule: O=S(=O)([O-])[O-].[Zn+2] [ZnSO4]
- reduction / inhibition of CpCHI activity (CpCHI; 10 mM): 62.0%
- Relative activity (%) of CpCHI (CpCHI; [8]): 38.00 ± 3.61%

Molecule: [Cl-].[K+] [KCl]
- reduction / inhibition of CpCHI activity (CpCHI; 10 mM): 7.67%
- Relative activity (%) of CpCHI (CpCHI; [8]): 92.33 ± 1.53%

Molecule: O=C(O)CN(CCN(CC(=O)O)CC(=O)O)CC(=O)O [EDTA]
- Relative activity (%) of CpCHI (CpCHI): 93.33 ± 3.06%
- reduction / inhibition of CpCHI activity (CpCHI): 6.67%

Molecule: [Cl][Fe]([Cl])[Cl] [FeCl3]
- reduction / inhibition of CpCHI activity (CpCHI; 10 mM): 29.33%
- Relative activity (%) of CpCHI (CpCHI; [8]): 70.67 ± 3.06%

B1: CpCHI: novel class IV chitinase from papaya (Carica papaya) fruit, mature form expressed in E. coli and purified on Ni-NTA (protein, listed as Carica papaya)
chain: QNCGCAPNLCCSRFGFCGQGEAYCGEGCREGPCNKPSPTPGGGSSLAEIVTPDFFNGIINQAAAGCAGKSFCSRGGFLDAANSFPEFGKLGSVDDSKREIAAFFAHVTHETGHFCHIEEINGASHDYCDEGNTQYPCAPGKNYFGRGPIQLTWNYNYGAAGDALRLNLLGSPEMVARDAAVSFKTALWFWMKNVRPVINQGFGATIRAINGAIECNGGNPGTVQARIGYYRDYCAKFGVAPGENLSC
- Relative activity toward collodial chitin [1]: 59% and 58.67 ± 5.03%
- broad pH optima ([2]; 30° C., 3 hours, glycol chitin): 5.0-9.0
- optimal pH for the enzyme activity ([2]; 30° C., 3 hours, glycol chitin): 6.0
- optimal temperature for the enzyme activity ([2]; pH 6.0, 3 hours, glycol chitin): 30 °C
- specific activity ([2]; recombinant protein after dialysis, spectrophotometric assay, glycol chitin): 14.8 U mg^−1
- Relative activity toward glycol chitin ([2]; substrate glycol chitin): 100%
- activity maintained at different temperatures ([2]; temperatures between 10-50° C.): at least 80%
- inhibition of spore germination (Alternaria brassicicola; 5 μM): 50%
- inhibition of spore germination (Alternaria brassicicola; 10 μM): 98%
- IC50 (E. coli ED2566): ~2500 nM
- IC50 (E. coli AD494): ~2500 nM
- antifungal activity (Sclerotium rolfsii [3]): great antifungal activity
- concentration that inhibited growth (Sclerotium rolfsii [3]): 15 µM
- duration of the inhibited activity (Sclerotium rolfsii [3]; 15 μM): 7 days
- antifungal activity (Phytophthora sp.): great antifungal activity
- concentration that inhibited growth (Phytophthora sp.): 15 µM
- duration of the inhibited activity (Phytophthora sp.; 15 μM): 7 days
- antifungal activity (Rhizoctonia solani): great antifungal activity
- concentration that inhibited growth (Rhizoctonia solani): 15 µM
- duration of the inhibited activity (Rhizoctonia solani; 15 μM): 7 days
- activity retained during long-term storage ([4]; 3 weeks at 30° C.): more than 60%
- activity retained during long-term storage ([4]; 3 weeks at 37° C.): more than 50%
- hydrolyzed products of glycol chitin ([5]; after 1 hour): (GlcNAc)3
- hydrolyzed products of glycol chitin ([5]; after 2 hours): (GlcNAc)3, (GlcNAc)2, and (GlcNAc)
- hydrolyzed products of glycol chitin ([5]; final products): (GlcNAc)2 and (GlcNAc)
- pathogenesis inhibition (Sclerotium rolfsii [6]; 5 μM): about 37%
- pathogenesis inhibition (Sclerotium rolfsii [6]; 10 μM): ~83%
- pathogenesis inhibition (Sclerotium rolfsii [6]; 15 μM): ~98%
- Percentage of the symptom appearing (Sclerotium rolfsii [6]; Cabbage detached leaves, 5 μM sprayed): 55.33 ± 6.11%
- Percentage of the symptom appearing (Sclerotium rolfsii [6]; Cabbage detached leaves, 10 μM sprayed): 14.33 ± 5.13%
- Percentage of the symptom appearing (Sclerotium rolfsii [6]; Cabbage detached leaves, 15 μM sprayed): 1.66 ± 2.88%
- Percentage of the symptom appearing (Sclerotium rolfsii [6]; bell pepper detached leaves, 5 μM sprayed): 66.67 ± 7.34%
- Percentage of the symptom appearing (Sclerotium rolfsii [6]; bell pepper detached leaves, 10 μM sprayed): 23.33 ± 7.64%
- Percentage of the symptom appearing (Sclerotium rolfsii [6]; bell pepper detached leaves, 15 μM sprayed): 3.33 ± 2.77%
- Percentage of the symptom appearing (Sclerotium rolfsii [6]; tomato detached leaves, 5 μM sprayed): 65 ± 15%
- Percentage of the symptom appearing (Sclerotium rolfsii [6]; tomato detached leaves, 10 μM sprayed): 13.33 ± 10.41%
- Percentage of the symptom appearing (Sclerotium rolfsii [6]; tomato detached leaves, 15 μM sprayed): 1.66 ± 1.32%
- Relative activity toward chitosan [7]: 11% and 11.33 ± 2.52%
